In paper PMC9122904, “Insights into the client protein release mechanism of the ATP-independent chaperone Spy” (Nature Communications, 2022):

What was measured:
Assay in all cases: BLI; Octet RED96; client biotinylated and loaded on streptavidin sensors; Spy or Spy variant in solution at 0.25, 0.5, 1, 1.5 and 2 μM; 40 mM HEPES, 150 mM NaCl, pH 7.5; Kd calculated as koff/kon
Details in all cases: both partners purified
[1] = molecular target: T1, Spy wild type (Spy_(1-138)) (UniProt P77754 24-161)
T1 construct: Spy, ATP-independent periplasmic chaperone; also called WT; wt; source: E. coli BL21 (DE3), purified (Ni-NTA, cation exchange, SEC); not shown: His6, N-terminal, cleaved; SUMO, N-terminal, cleaved
T1 sequence (looked up): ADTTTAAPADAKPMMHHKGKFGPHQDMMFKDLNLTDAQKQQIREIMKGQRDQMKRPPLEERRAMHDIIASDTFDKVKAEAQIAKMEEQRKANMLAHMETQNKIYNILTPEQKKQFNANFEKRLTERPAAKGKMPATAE
How it was run: (§1)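 Association was recorded with an Octet RED96 as streptavidin sensors carrying client proteins, biotinylated with EZ-link NHS-biotin at a 1:1 molar ratio, sat in 40 mM HEPES, 150 mM NaCl, pH 7.5 with 0.25 to 2 μM of the analyte protein (0.25, 0.5, 1, 1.5 and 2 μM). Dissociation followed after transfer to analyte-free buffer. Both wavelength-shift phases were fitted in SigmaPlot 12.0 to obtain koff and the observed association rate, whose dependence on analyte concentration yielded kon, with Kd defined as koff divided by kon.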

[2] = molecular target: T2, Spy_(27-127) (UniProt P77754 50-150)
T2 construct: Spy chaperone, residues 27-127; source: E. coli BL21 (DE3), purified (Ni-NTA, cation exchange, SEC); not shown: His6, N-terminal, cleaved; SUMO, N-terminal, cleaved
T2 sequence (looked up): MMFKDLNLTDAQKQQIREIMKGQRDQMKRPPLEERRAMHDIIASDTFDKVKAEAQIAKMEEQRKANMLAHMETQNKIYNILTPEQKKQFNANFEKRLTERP
How it was run: as §1

[3] = molecular target: T3, Spy_(29-138) (UniProt P77754 52-161)
T3 construct: source: E. coli BL21 (DE3), purified (Ni-NTA, cation exchange, SEC); not shown: His6, N-terminal, cleaved; SUMO, N-terminal, cleaved
T3 sequence (looked up): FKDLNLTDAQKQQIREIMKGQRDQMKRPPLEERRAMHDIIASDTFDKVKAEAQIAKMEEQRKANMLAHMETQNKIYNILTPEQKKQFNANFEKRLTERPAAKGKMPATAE
How it was run: as §1

[4] = molecular target: T4, Spy_(29-130) (UniProt P77754 52-153)
T4 construct: Spy chaperone, residues 29-130; source: E. coli BL21 (DE3), purified (Ni-NTA, cation exchange, SEC); not shown: His6, N-terminal, cleaved; SUMO, N-terminal, cleaved
T4 sequence (looked up): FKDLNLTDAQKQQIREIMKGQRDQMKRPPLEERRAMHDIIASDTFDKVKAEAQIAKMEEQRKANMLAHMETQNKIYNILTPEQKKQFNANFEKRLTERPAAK
How it was run: as §1

[5] = molecular target: T5, Spy_(29-127) (UniProt P77754 52-150)
T5 construct: Spy chaperone, residues 29-127; source: E. coli BL21 (DE3), purified (Ni-NTA, cation exchange, SEC); not shown: His6, N-terminal, cleaved; SUMO, N-terminal, cleaved
T5 sequence (looked up): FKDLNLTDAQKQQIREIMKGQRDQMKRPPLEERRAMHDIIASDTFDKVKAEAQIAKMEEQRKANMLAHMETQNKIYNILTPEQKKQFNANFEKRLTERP
How it was run: as §1

[6] = molecular target: T6, Spy_(29-124) (UniProt P77754 52-147)
T6 construct: also called termini-free Spy; source: E. coli BL21 (DE3), purified (Ni-NTA, cation exchange, SEC); not shown: His6, N-terminal, cleaved; SUMO, N-terminal, cleaved
T6 sequence (looked up): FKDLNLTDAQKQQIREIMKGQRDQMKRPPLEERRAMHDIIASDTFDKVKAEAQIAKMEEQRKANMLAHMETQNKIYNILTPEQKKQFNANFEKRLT
How it was run: as §1

[7] = molecular target: T7, Spy_(21-127) (UniProt P77754 44-150)
T7 construct: Spy chaperone, residues 21-127; source: E. coli BL21 (DE3), purified (Ni-NTA, cation exchange, SEC); not shown: His6, N-terminal, cleaved; SUMO, N-terminal, cleaved
T7 sequence (looked up): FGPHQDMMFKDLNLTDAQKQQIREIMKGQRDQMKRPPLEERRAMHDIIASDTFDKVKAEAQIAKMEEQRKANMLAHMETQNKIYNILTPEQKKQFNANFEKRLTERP
How it was run: as §1

[8] = molecular target: T8, Spy_(24-124) (UniProt P77754 47-147)
T8 construct: source: E. coli BL21 (DE3), purified (Ni-NTA, cation exchange, SEC); not shown: His6, N-terminal, cleaved; SUMO, N-terminal, cleaved
T8 sequence (looked up): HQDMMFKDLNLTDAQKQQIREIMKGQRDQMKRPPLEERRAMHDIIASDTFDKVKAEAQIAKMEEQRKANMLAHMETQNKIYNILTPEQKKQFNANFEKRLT
How it was run: as §1

B1: Im7 H40W L53A I54A (natural protein)
chain: MELKNSISDYTEAEFVQLLKEIEKENVAATDDVLDVLLEWFVKITEHPDGTDAAYYPSDNRDDSPEGIVKEIKEWRAANGKPGFKQG
modifications: biotin (EZ-link NHS-biotin, 1:1 molar ratio of biotin to protein)
notes: Im7 (colicin E7 immunity protein) with H40W L53A I54A; Spy was made with an N-terminal His6-SUMO tag that was cleaved; also called Im7AAW; partially folded client; source: purified by a similar procedure to Spy
[1]
  Kd: 643 nM
[2]
  Kd: 300 nM
[3]
  Kd: 313 nM
[4]
  Kd: 333 nM
[5]
  Kd: 310 nM
[6]
  Kd: 323 nM
[7]
  Kd: 1980 nM
[8]
  Kd: 1640 nM
